Measurements: article PMC4461205, “Structural bases for N-glycan processing by mannoside phosphorylase” (Acta Crystallographica Section D: Biological Crystallography, 2015)

Tests used:
[1] = target: T1, Uhgb_MP (uncultured organism, UniProt D9ZDQ9); test: X-ray crystal structure, co-crystallization; type: binding; set-up: homohexamer, 240 kDa by SEC-MALLS; conditions: +1 subsite; with phosphate, glycerol in -1 subsite; co-crystallized with 5 mM N-acetylglucosamine, pH 7.0; 4C1 chair; 1.60 A; also with mannose in 4udk (1.76 A)
T1 sequence (D9ZDQ9 entry or part of it): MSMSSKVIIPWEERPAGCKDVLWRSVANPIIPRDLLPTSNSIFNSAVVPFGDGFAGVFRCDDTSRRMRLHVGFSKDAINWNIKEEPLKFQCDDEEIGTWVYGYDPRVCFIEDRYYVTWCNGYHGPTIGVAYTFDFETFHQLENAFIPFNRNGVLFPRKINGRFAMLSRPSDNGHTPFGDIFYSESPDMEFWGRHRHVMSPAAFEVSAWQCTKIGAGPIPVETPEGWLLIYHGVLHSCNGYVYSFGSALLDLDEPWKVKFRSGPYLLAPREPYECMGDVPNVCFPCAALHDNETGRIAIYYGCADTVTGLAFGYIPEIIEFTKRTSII

[2] = target: Uhgb_MP, β-1,4-mannopyranosyl-chitobiose phosphorylase (GH130_2 mannoside phosphorylase) (uncultivated Bacteroides bacterium (human gut)); test: SAXS (SEC-SAXS); Bio SEC3 300 column on line with SAXS, 10°C; phosphate buffer or Tris-glycerol buffer (aggregation seen in both); hexamer read from data in Tris-glycerol buffer with 1 mM TCEP; ab initio envelope and rigid-body modelling
[3] = target: Uhgb_MP, β-1,4-mannopyranosyl-chitobiose phosphorylase (GH130_2 mannoside phosphorylase) (uncultivated Bacteroides bacterium (human gut)); test: SEC-MALS; 30 µl of gel-filtered Uhgb_MP at 6 mg/ml on Superdex 200 HR 10/300 in 20 mM potassium phosphate pH 7.0, 150 mM NaCl, 0.4 ml/min, 15°C
[4] = target: Uhgb_MP, β-1,4-mannopyranosyl-chitobiose phosphorylase (GH130_2 mannoside phosphorylase) (uncultivated Bacteroides bacterium (human gut)); test: crystal structure; sitting-drop vapour diffusion at 12°C; protein 9-12 mg/ml in 20 mM potassium phosphate pH 7.0, 150 mM NaCl, with or without 5 mM mannose and/or 5 mM N-acetylglucosamine; PEG 3350, ammonium chloride; space group P212121, six molecules per asymmetric unit
[5] = target: T1, Uhgb_MP; conditions: catalytic site; phosphate from 20 mM potassium phosphate buffer pH 7.0; glycerol in -1 subsite; 1.80 A; also in 4udj, 4udg, 4udk

CC(=O)N[C@H]1C(O)O[C@H](CO)[C@@H](O)[C@@H]1O (some centres unmarked) [N-acetylglucosamine] was tested, and the “X-ray crystal structure, co-crystallization” value [1] was “complex with N-acetylglucosamine alone (PDB entry 4udg”.

With “Uhgb_MP, β-1,4-mannopyranosyl-chitobiose phosphorylase (GH130_2 mannoside phosphorylase) (enzyme)” the stoichiometry N [2] was 6, the stoichiometry N [3] was 6.16 and the stoichiometry N [4] was 6.

With O=P(O)(O)O [inorganic phosphate] the X-ray crystal structure [5] was “Pi is deeply buried in the catalytic site, strongly stabilized by hydrogen bonds”.
